Target: human IgE myeloma protein (American Biosystems, Inc. cat. no. A113) (human)
Assay: ELISA negative control run with each assay (human IgE ELISA and peptide ELISAs)

human IgE myeloma protein (American Biosystems, Inc. cat. no. A113) (human), sequence (heavy, as listed by the source): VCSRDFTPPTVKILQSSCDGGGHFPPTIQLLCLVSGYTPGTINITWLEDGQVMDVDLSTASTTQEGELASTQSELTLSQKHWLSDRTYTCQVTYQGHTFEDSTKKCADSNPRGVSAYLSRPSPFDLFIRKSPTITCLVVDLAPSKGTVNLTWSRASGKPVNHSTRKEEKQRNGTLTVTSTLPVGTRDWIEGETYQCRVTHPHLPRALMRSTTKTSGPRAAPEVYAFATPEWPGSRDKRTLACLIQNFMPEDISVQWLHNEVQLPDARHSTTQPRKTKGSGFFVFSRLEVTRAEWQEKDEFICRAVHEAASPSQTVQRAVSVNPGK

A492: < 0.15 A492
Substance: diluted normal guinea pig control samples (antibody)

Reference: US20050250934A1
